The text below walks through data of patent publication US20070082380A1 (ARMAGEN TECHNOLOGIES, published 2007).

The assay concerns the target T1, human insulin receptor extracellular domain (HIR ECD) (human, UniProt P06213 28-956, limits assumed).
T1 construct: extracellular domain
Put plainly: competitive ligand binding assay, displacement of [125I] murine HIRMAb from plated HIR ECD, Scatchard analysis. The procedure:
CHO cells permanently transfected with the HIR ECD were grown in serum free media (SFM), and the HIR ECD was purified with a wheat germ agglutinin affinity column.

B1: chimeric HIRMAb (chimeric monoclonal antibody to the human insulin receptor) (antibody, human IgG1, kappa)
heavy: not shown
light: DIQMTQSPSSLSASLGERVSLTCRASQDIGGNLYWLQQGPDGTIKRLIYATSSLDSGVPKRFSGSRSGSDYSLTISSLESEDFVDYYCLQYSSSPWTFGGATKMEIKRTVAAPSVFIFPPSDEQLKSGTASVVCLLNNFYPREAKVQWKVDNALQSGNSQESVTEQDSKDSTYSLSSTLTLSKADYEKHKVYACEVTHQGLSSPVTKSFNRGEC
notes: chimeric human IgG1/kappa
For B1, the Ki is 0.63 nM.
